In this test the target is cynomolgus GITR (cyGITR), soluble analyte (cynomolgus). Put plainly: SPR (Biacore T200), 37 C; antibody captured on anti-human Fc chip, GITR as analyte; 1:1 Langmuir fit. (SPR reads the build-up and loss of mass on a sensor chip optically.)

Where only a bound is given, the exact number is not on record here.

B1: h3G7 H1 (antibody, V domains shown)
VH: EVQLVESGGGLVQPGGSLRLSCAASGFTFSDYTMNWVRQAPGKGLEWVALINPYNGGIRYNQKFKGRFTISRDNAKNSLYLQMNSLRAEDTAVYYCARIGGYYDSMDYWGQGTLVTVSS
VL: DIQMTQSPSSLSASVGDRVTITCRASESVDNFGINFLNWYQQKPGKAPKLLIYAASNQGSGVPSRFSGSGSGTDFTLTISSLQPEDFATYYCQQSKELPWTFGGGTKVEIK
Turning to B1, the Kd (as a rule, the constant that tells how readily two partners part at equilibrium) is over 100 nM; the koff (commonly a measure of how fast the partners let go of each other) is 0.078 s⁻¹; the t1/2 came to 9 s.

These data come from US20200031947A1.
